1 molecule from article PMC11245600, “Therapeutic potential of the secreted Kazal-type serine protease inhibitor SPINK4 in colitis” (Nature Communications, 2024) can be followed below.

This assay deals with T1, Fc-tagged extracellular section of EGFR (rEGFR) (human, UniProt P00533 25-645).
T1 construct: EGFR, extracellular section, human-derived; Bought protein; also called rEGFR (extracellular part); recombinant extracellular domain of EGFR; source: bought: Sino Biological
Briefly: pull-down; 200 ng/mL rSPINK4-His and 1000 ng/mL Fc-tagged extracellular EGFR in 1 mL PBS with protease inhibitors, 4 °C overnight; anti-His or anti-EGFR magnetic beads, IgG control; Western blot. The following applies: both partners purified. In general terms: Immunoblotting shows a protein as a band on a membrane.

B1: human-derived recombinant SPINK4 protein, His-tagged (rSPINK4-His) (natural protein, UniProt O60575 27-86, looked up)
chain: GKLPFSRMPICEHMVESPTCSQMSNLVCGTDGLTYTNECQLCLARIKTKQDIQIMKDGKC
notes: Bought recombinant protein
On to B1, for which the binding result is given as “binds”.
